What follows are binders tested against Recombinant protein Claudin 18.2 (assay: ELISA on plate-coated recombinant Claudin 18.2, OD450; Kd table under the graph, no unit in the table, unit from the x axis log[antibody] nM).
Sequence of Recombinant protein Claudin 18.2 (chain, as listed by the source limits assumed, form in doubt): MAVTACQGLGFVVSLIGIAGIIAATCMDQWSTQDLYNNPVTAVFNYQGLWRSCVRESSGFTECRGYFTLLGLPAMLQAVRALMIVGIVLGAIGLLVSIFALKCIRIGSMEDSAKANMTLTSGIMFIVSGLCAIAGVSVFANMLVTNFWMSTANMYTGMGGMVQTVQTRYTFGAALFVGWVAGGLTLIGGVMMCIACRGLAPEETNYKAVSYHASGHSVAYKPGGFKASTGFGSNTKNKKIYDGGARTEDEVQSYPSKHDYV

Row | Binder | Kd
1 | h5C9a (antibody, V domains shown) VH: EVQLVESGGGLVQPGGSLRLSCAASGYTFTNYGMNWVRQAPGKGLEWVAWINMYTGEPTYADDFKGRFTISRDDSKNTLYLQMNSLRAEDTAVYYCARLYNGNSLDYWGQGTLVTVSS VL: DIQMTQSPSSLSASVGDRVTITCKSSQSLLNSGNQKSYLTWYQQKPGKAPKLLIYWASTLESGVPSRFSGSGSGTDFTLTISSLQPEDFATYYCQNAYSFPFTFGQGTKVEIK | 0.278 nM
2 | h5C9ox (antibody, V domains shown) VH: EVQLVESGGGLVQPGGSLRLSCAVSGYTFSMNWVRQAPGKGLEWVAWINMYTGEPTYADDFKGRFTISRDDSKNTLYLQMNSLRAEDTAVYYCARASRGNGMDYWGQGTLVTVSS VL: DIQMTQSPSSLSASVGDRVTITCKSSQSLLNSGNQKSYLTWYQQKPGKAPKLLIYWASTLESGVPSRFSGSGSGTDYTLTISSLQPEDFATYYCQNAYSFPFTFGQGTKVEIK | 0.079 nM
3 | h5C9ot (antibody, V domains shown) VH: EVQLVESGGGLVQPGGSLRLSCAVSGYTFSMNWVRQAPGKGLEWVAWINMYTGEPTYADDFKGRFTISRDDSKNTLYLQMNSLRAEDTAVYYCARSSMGNGFDYWGQGTLVTVSS VL: DIQMTQSPSSLSASVGDRVTITCKSSQSLLNSGNQKSYLTWYQQKPGKAPKLLIYWASTLESGVPSRFSGSGSGTDYTLTISSLQPEDFATYYCQNAYSFPFTFGQGTKVEIK | 0.0987 nM
4 | h5C9op (antibody, V domains shown) VH: EVQLVESGGGLVQPGGSLRLSCAVSGYTFSMNWVRQAPGKGLEWVAWINMYTGEPTYADDFKGRFTISRDDSKNTLYLQMNSLRAEDTAVYYCARTSRGNGMDYWGQGTLVTVSS VL: DIQMTQSPSSLSASVGDRVTITCKSSQSLLNSGNQKSYLTWYQQKPGKAPKLLIYWASTLESGVPSRFSGSGSGTDYTLTISSLQPEDFATYYCQNAYSFPFTFGQGTKVEIK | 0.109 nM
5 | h5C9oq (antibody, V domains shown) VH: EVQLVESGGGLVQPGGSLRLSCAVSGYTFSMNWVRQAPGKGLEWVAWINMYTGEPTYADDFKGRFTISRDDSKNTLYLQMNSLRAEDTAVYYCARLYRGNVMDYWGQGTLVTVSS VL: DIQMTQSPSSLSASVGDRVTITCKSSQSLLNSGNQKSYLTWYQQKPGKAPKLLIYWASTLESGVPSRFSGSGSGTDYTLTISSLQPEDFATYYCQNAYSFPFTFGQGTKVEIK | 0.107 nM
6 | h5C9ou (antibody, V domains shown) VH: EVQLVESGGGLVQPGGSLRLSCAVSGYTFSMNWVRQAPGKGLEWVAWINMYTGEPTYADDFKGRFTISRDDSKNTLYLQMNSLRAEDTAVYYCARLSKGNGMDYWGQGTLVTVSS VL: DIQMTQSPSSLSASVGDRVTITCKSSQSLLNSGNQKSYLTWYQQKPGKAPKLLIYWASTLESGVPSRFSGSGSGTDYTLTISSLQPEDFATYYCQNAYSFPFTFGQGTKVEIK | 0.0919 nM
7 | h5C9oar (antibody, V domains shown) VH: EVQLVESGGGLVQPGGSLRLSCAVSGYTFSMNWVRQAPGKGLEWVAWINMYTGEPNYADDFKGRFTISRDDSKNTLYLQMNSLRAEDTAVYYCARLYNGNSLDYWGQGTLVTVSS VL: DIQMTQSPSSLSASVGDRVTITCKSSQSLLNWGNQKSYLTWYQQKPGKAPKLLIYWASTLWSGVPSRFSGSGSGTDYTLTISSLQPEDFATYYCQNAYSFPFTFGQGTKVEIK | 0.149 nM
8 | h5C9or (antibody, V domains shown) VH: EVQLVESGGGLVQPGGSLRLSCAVSGYTFSMNWVRQAPGKGLEWVAWINMYTGEPTYADDFKGRFTISRDDSKNTLYLQMNSLRAEDTAVYYCARLNRGNSMDYWGQGTLVTVSS VL: DIQMTQSPSSLSASVGDRVTITCKSSQSLLNSGNQKSYLTWYQQKPGKAPKLLIYWASTLESGVPSRFSGSGSGTDYTLTISSLQPEDFATYYCQNAYSFPFTFGQGTKVEIK | 0.0715 nM
9 | h5C9oaq (antibody, V domains shown) VH: EVQLVESGGGLVQPGGSLRLSCAVSGYTFSMNWVRQAPGKGLEWVAWINMYTGEQTYADDFKGRFTISRDDSKNTLYLQMNSLRAEDTAVYYCARLYNGNSLDYWGQGTLVTVSS VL: DIQMTQSPSSLSASVGDRVTITCKSSQSLLNWGNQKSYLTWYQQKPGKAPKLLIYWASTLFSGVPSRFSGSGSGTDYTLTISSLQPEDFATYYCQNAYSFPFTFGQGTKVEIK | 0.203 nM
10 | h5C9oy (antibody, V domains shown) VH: EVQLVESGGGLVQPGGSLRLSCAVSGYTFSMNWVRQAPGKGLEWVAWINMYTGEPTYADDFKGRFTISRDDSKNTLYLQMNSLRAEDTAVYYCARSSKGNGLDYWGQGTLVTVSS VL: DIQMTQSPSSLSASVGDRVTITCKSSQSLLNSGNQKSYLTWYQQKPGKAPKLLIYWASTLESGVPSRFSGSGSGTDYTLTISSLQPEDFATYYCQNAYSFPFTFGQGTKVEIK | 0.103 nM
11 | h5C9oz (antibody, V domains shown) VH: EVQLVESGGGLVQPGGSLRLSCAVSGYTFSMNWVRQAPGKGLEWVAWINMYTGEPTYADDFKGRFTISRDDSKNTLYLQMNSLRAEDTAVYYCARLSRGNSLDYWGQGTLVTVSS VL: DIQMTQSPSSLSASVGDRVTITCKSSQSLLNSGNQKSYLTWYQQKPGKAPKLLIYWASTLESGVPSRFSGSGSGTDYTLTISSLQPEDFATYYCQNAYSFPFTFGQGTKVEIK | 0.0778 nM
12 | h5C9n (antibody, V domains shown) VH: EVQLVESGGGLVQPGGSLRLSCAVSGYTFTNYGMNWVRQAPGKGLEWVAWINMYTGEPTYADDFKGRFTISRDDSKNTLYLQMNSLRAEDTAVYYCARLYNGNSLDYWGQGTLVTVSS VL: DIQMTQSPSSLSASVGDRVTITCKSSQSLLNSGNQKSYLTWYQQKPGKAPKLLIYWASTLESGVPSRFSGSGSGTDFTLTISSLQPEDFATYYCQNAYSFPFTFGQGTKVEIK | 0.323 nM
13 | h5C9ow (antibody, V domains shown) VH: EVQLVESGGGLVQPGGSLRLSCAVSGYTFSMNWVRQAPGKGLEWVAWINMYTGEPTYADDFKGRFTISRDDSKNTLYLQMNSLRAEDTAVYYCARLTKGNGMDYWGQGTLVTVSS VL: DIQMTQSPSSLSASVGDRVTITCKSSQSLLNSGNQKSYLTWYQQKPGKAPKLLIYWASTLESGVPSRFSGSGSGTDYTLTISSLQPEDFATYYCQNAYSFPFTFGQGTKVEIK | 0.0882 nM
14 | h5C9oo (antibody, V domains shown) VH: EVQLVESGGGLVQPGGSLRLSCAVSGYTFSMNWVRQAPGKGLEWVAWINMYTGEPTYADDFKGRFTISRDDSKNTLYLQMNSLRAEDTAVYYCARLVRGNGFDYWGQGTLVTVSS VL: DIQMTQSPSSLSASVGDRVTITCKSSQSLLNSGNQKSYLTWYQQKPGKAPKLLIYWASTLESGVPSRFSGSGSGTDYTLTISSLQPEDFATYYCQNAYSFPFTFGQGTKVEIK | 0.122 nM

Continued by falling Kd, values first:

Row | Kd | Binder
15 | 0.189 nM | h5C9oap (antibody, V domains shown) VH: EVQLVESGGGLVQPGGSLRLSCAVSGYTFSMNWVRQAPGKGLEWVAWINMYTGERTYADDFKGRFTISRDDSKNTLYLQMNSLRAEDTAVYYCARLYNGNSLDYWGQGTLVTVSS VL: DIQMTQSPSSLSASVGDRVTITCKSSQSLLNWGNQKSYLTWYQQKPGKAPKLLIYWASTLQSGVPSRFSGSGSGTDYTLTISSLQPEDFATYYCQNAYSFPFTFGQGTKVEIK
16 | 0.134 nM | h5C9os (antibody, V domains shown) VH: EVQLVESGGGLVQPGGSLRLSCAVSGYTFSMNWVRQAPGKGLEWVAWINMYTGEPTYADDFKGRFTISRDDSKNTLYLQMNSLRAEDTAVYYCARTGTGNTMDYWGQGTLVTVSS VL: DIQMTQSPSSLSASVGDRVTITCKSSQSLLNSGNQKSYLTWYQQKPGKAPKLLIYWASTLESGVPSRFSGSGSGTDYTLTISSLQPEDFATYYCQNAYSFPFTFGQGTKVEIK
17 | 0.131 nM | h5C9on (antibody, V domains shown) VH: EVQLVESGGGLVQPGGSLRLSCAVSGYTFSMNWVRQAPGKGLEWVAWINMYTGEPTYADDFKGRFTISRDDSKNTLYLQMNSLRAEDTAVYYCARTAPGNGFDYWGQGTLVTVSS VL: DIQMTQSPSSLSASVGDRVTITCKSSQSLLNSGNQKSYLTWYQQKPGKAPKLLIYWASTLESGVPSRFSGSGSGTDYTLTISSLQPEDFATYYCQNAYSFPFTFGQGTKVEIK
18 | 0.119 nM | h5C9ol (antibody, V domains shown) VH: EVQLVESGGGLVQPGGSLRLSCAVSGYTFSMNWVRQAPGKGLEWVAWINMYTGEPTYADDFKGRFTISRDDSKNTLYLQMNSLRAEDTAVYYCARLGPGNVFDYWGQGTLVTVSS VL: DIQMTQSPSSLSASVGDRVTITCKSSQSLLNSGNQKSYLTWYQQKPGKAPKLLIYWASTLESGVPSRFSGSGSGTDYTLTISSLQPEDFATYYCQNAYSFPFTFGQGTKVEIK
19 | 0.108 nM | h5C9ok (antibody, V domains shown) VH: EVQLVESGGGLVQPGGSLRLSCAVSGYTFSMNWVRQAPGKGLEWVAWINMYTGEPTYADDFKGRFTISRDDSKNTLYLQMNSLRAEDTAVYYCARLTRGNSLDYWGQGTLVTVSS VL: DIQMTQSPSSLSASVGDRVTITCKSSQSLLNSGNQKSYLTWYQQKPGKAPKLLIYWASTLESGVPSRFSGSGSGTDYTLTISSLQPEDFATYYCQNAYSFPFTFGQGTKVEIK
20 | 0.107 nM | h5C9ov (antibody, V domains shown) VH: EVQLVESGGGLVQPGGSLRLSCAVSGYTFSMNWVRQAPGKGLEWVAWINMYTGEPTYADDFKGRFTISRDDSKNTLYLQMNSLRAEDTAVYYCARLVKGNGFDYWGQGTLVTVSS VL: DIQMTQSPSSLSASVGDRVTITCKSSQSLLNSGNQKSYLTWYQQKPGKAPKLLIYWASTLESGVPSRFSGSGSGTDYTLTISSLQPEDFATYYCQNAYSFPFTFGQGTKVEIK
21 | 0.1 nM | h5C9om (antibody, V domains shown) VH: EVQLVESGGGLVQPGGSLRLSCAVSGYTFSMNWVRQAPGKGLEWVAWINMYTGEPTYADDFKGRFTISRDDSKNTLYLQMNSLRAEDTAVYYCARLARGNGFDYWGQGTLVTVSS VL: DIQMTQSPSSLSASVGDRVTITCKSSQSLLNSGNQKSYLTWYQQKPGKAPKLLIYWASTLESGVPSRFSGSGSGTDYTLTISSLQPEDFATYYCQNAYSFPFTFGQGTKVEIK
22 | 0.0815 nM | h5C9oaa (antibody, V domains shown) VH: EVQLVESGGGLVQPGGSLRLSCAVSGYTFSMNWVRQAPGKGLEWVAWINMYTGEPTYADDFKGRFTISRDDSKNTLYLQMNSLRAEDTAVYYCARLVRGNGMDYWGQGTLVTVSS VL: DIQMTQSPSSLSASVGDRVTITCKSSQSLLNSGNQKSYLTWYQQKPGKAPKLLIYWASTLESGVPSRFSGSGSGTDYTLTISSLQPEDFATYYCQNAYSFPFTFGQGTKVEIK
